Format in all cases: in vitro ADME, human
Substrate in series [1]: COc1c(OCCCCN2CCCC2)cc(O)c2c(=O)cc(-c3ccccc3)oc12
The experiment in a line: Recombinant enzyme kinetics of GL-V9 glucuronidation, rUGT1A7. The conditions noted are these: other: formation of 5-O-glucuronide GL-V9, rUGT1A7, protein 0.05 mg/mL, 1 h at 37 °C, mean ± SD, n = 3, pH 7.4. How it is done:
[The source words this procedure for another target and says it was used here with some conditions changed.] (§1) The composition of the incubation system (200 μL) contained liver microsomes of different species (0.1 mg protein/mL), 5 mM saccharolactone (D-saccharic acid 1,4-lactone monohydrate), 10 mM MgCl2, alamethicin (50 μg/mg protein), Tris-HCl buffer (50 mM, pH 7.4) and GL-V9 (1 μM). After 5 min of preincubation at 37 °C, UDPGA (5 mM) was added to initiate the phase II reaction. Control incubation samples were performed without UDPGA or without substrates (GL-V9). The reaction was terminated by addition of ice-cold methanol (three volumes) after incubation for 1 h at 37 °C. Samples were vortexed, centrifuged at 21,500× g for 10 min and then stored at 4 °C until HPLC-UV-TripleTOF analysis. To confirm that these metabolites are conjugates resulting from glucuronidation reaction, enzymatic hydrolysis of samples was processed. β-glucuronidase (100 KU, Sigma) was added and the hydrolysis was performed overnight at 37 °C. The control samples were carried out without β-glucuronidase under the same condition.
(§2) Rates of the glucuronidation of GL-V9 were described as amounts of glucuronides formed per minute per milligram (pmol/min/mg). The calculation model of kinetic parameters was selected by the profile of Eadie-Hofstee plots. It often includes three possibilities: (1) the Eadie-Hofstee plot was linear, the formation rates of glucuronides (V) at different substrate concentrations (C) were fit to the standard Michaelis-Menten calculation of GraphPad Prism (version 6.02, GraphPad Software Inc., Guildford, Surrey, UK); (2) the Eadie-Hofstee plot was atypical kinetic-autoactivation, the rates and concentration were fit with the allosteric sigmoidal function of GraphPad Prism; (3) the Eadie-Hofstee plot was atypical kinetic-biphasic, the rates and concentration were fit with the […] of GraphPad Prism.

Substrate in series [2]: COc1c(OCCCCN2CCCC2)cc(O)c2c(=O)cc(-c3ccccc3)oc12
The experiment in a line: Recombinant enzyme kinetics of GL-V9 glucuronidation, rUGT1A8. As to conditions: other: formation of 5-O-glucuronide GL-V9, rUGT1A8, protein 0.06 mg/mL, 1 h at 37 °C, mean ± SD, n = 3, pH 7.4. How it is done:
[The source words this procedure for another target and says it was used here with some conditions changed.] as §1, §2

Substrate in series [3]: COc1c(OCCCCN2CCCC2)cc(O)c2c(=O)cc(-c3ccccc3)oc12
The experiment in a line: Recombinant enzyme kinetics of GL-V9 glucuronidation, rUGT1A9. As to conditions: other: formation of 5-O-glucuronide GL-V9, rUGT1A9, protein 0.06 mg/mL, 1 h at 37 °C, mean ± SD, n = 3, pH 7.4.

Consider three proteins from article PMC6515479, “An Investigation on Glucuronidation Metabolite Identification, Isozyme Contribution, and Species Differences of GL-V9 In Vitro and In Vivo” (Molecules, 2019).

B1: rUGT1A7 (Homo sapiens) (protein)
chain: GKLLVVPMDGSHWFTMQSVVEKLILRGHEVVVVMPEVSWQLGRSLNCTVKTYSTSYTLEDQDREFMVFADARWTAPLRSAFSLLTSSSNGIFDLFFSNCRSLFNDRKLVEYLKESCFDAVFLDPFDACGLIVAKYFSLPSVVFARGIFCHYLEEGAQCPAPLSYVPRLLLGFSDAMTFKERVWNHIMHLEEHLFCPYFFKNVLEIASEILQTPVTAYDLYSHTSIWLLRTDFVLEYPKPVMPNMIFIGGINCHQGKPVPMEFEAYINASGEHGIVVFSLGSMVSEIPEKKAMAIADALGKIPQTVLWRYTGTRPSNLANNTILVKWLPQNDLLGHPMTRAFITHAGSHGVYESICNGVPMVMMPLFGDQMDNAKRMETKGAGVTLNVLEMTSEDLENALKAVINDKSYKENIMRLSSLHKDRPVEPLDLAVFWVEFVMRHKGAPHLRPAAHDLTWYQYHSLDVIGFLLAVVLTVAFITFKCCAYGYRKCLGKKGRVKKAHKSKTH
notes: purchased Corning (Woburn, MA, USA)
In general, Km refers to the concentration of substrate that gives half-maximal velocity. By Vmax is commonly meant the rate approached at saturating substrate. Take B1: in series [1], the Km worked out at 3.25 ± 0.29 µM, the Vmax was determined as 3.11e-05 µmol/min/mg and the Vmax/Km was 9.58 µL/min/mg.

B2: rUGT1A8 (Homo sapiens) (protein)
chain: GKLLVVPMDGSHWFTMQSVVEKLILRGHEVVVVMPEVSWQLGKSLNCTVKTYSTSYTLEDLDREFMDFADAQWKAQVRSLFSLFLSSSNGFFNLFFSHCRSLFNDRKLVEYLKESSFDAVFLDPFDACGLIVAKYFSLPSVVFARGIACHYLEEGAQCPAPLSYVPRILLGFSDAMTFKERVRNHIMHLEEHLFCQYFSKNALEIASEILQTPVTAYDLYSHTSIWLLRTDFVLDYPKPVMPNMIFIGGINCHQGKPLPMEFEAYINASGEHGIVVFSLGSMVSEIPEKKAMAIADALGKIPQTVLWRYTGTRPSNLANNTILVKWLPQNDLLGHPMTRAFITHAGSHGVYESICNGVPMVMMPLFGDQMDNAKRMETKGAGVTLNVLEMTSEDLENALKAVINDKSYKENIMRLSSLHKDRPVEPLDLAVFWVEFVMRHKGAPHLRPAAHDLTWYQYHSLDVIGFLLAVVLTVAFITFKCCAYGYRKCLGKKGRVKKAHKSKTH
notes: as for B1
Turning to B2, in series [2], the Km was found to be 13.92 ± 1.05 µM, the Vmax is 5.06e-05 µmol/min/mg and the Vmax/Km was determined as 3.64 µL/min/mg.

B3: rUGT1A9 (Homo sapiens) (protein)
chain: GKLLVVPMDGSHWFTMRSVVEKLILRGHEVVVVMPEVSWQLGRSLNCTVKTYSTSYTLEDLDREFKAFAHAQWKAQVRSIYSLLMGSYNDIFDLFFSNCRSLFKDKKLVEYLKESSFDAVFLDPFDNCGLIVAKYFSLPSVVFARGILCHYLEEGAQCPAPLSYVPRILLGFSDAMTFKERVRNHIMHLEEHLLCHRFFKNALEIASEILQTPVTEYDLYSHTSIWLLRTDFVLDYPKPVMPNMIFIGGINCHQGKPLPMEFEAYINASGEHGIVVFSLGSMVSEIPEKKAMAIADALGKIPQTVLWRYTGTRPSNLANNTILVKWLPQNDLLGHPMTRAFITHAGSHGVYESICNGVPMVMMPLFGDQMDNAKRMETKGAGVTLNVLEMTSEDLENALKAVINDKSYKENIMRLSSLHKDRPVEPLDLAVFWVEFVMRHKGAPHLRPAAHDLTWYQYHSLDVIGFLLAVVLTVAFITFKCCAYGYRKCLGKKGRVKKAHKSKTH
notes: as for B1
For the protein B3, in series [3], the Km worked out at 4.72 ± 0.28 µM and the Vmax turned out to be 0.000148 µmol/min/mg.
